Assay results published in doi:10.1101/2025.09.04.674340.

Columns and labels:
[1] = molecular target: RC1 Env SOSIP trimer (HIV-1 strain BG505); assay: cryo-EM structure
[2] = molecular target: WIN332 Env SOSIP trimer (HIV-1 strain BG505); assay: cryo-EM structure

B1: Ab1999 Fab (Fab, V domains shown)
VH: QVQLQESGPGLVKPSETLSLTCAVSGGSISDDYSWSWIRQPPGKGLEWIGYIYGSGGGTNYNPSLKNRVTISIDTSKNQFSLKLSSVTAADTAVYYCARIFAFITVFGVVTPEDNWFDVWGPGVLVTVSS
VL: DIQMTQSPSSLSASVGDRVTITCRASQSINNYLHWYQQRAGEAPKLLIYAASALQTGVPSRFSGSGSGTDFTLTISSLQPEDVATYYCQHSYGTPYSFGQGTKVEIK
[1]
  stoichiometry N (Fab per Env trimer): 1

B2: Ab1983 Fab (Fab, V domains shown)
VH: QLQLQESGPGLVKPSETLSLTCAVSGGSISSDYYYWSWIRQPPGKGLEWIGGIYSISESTNYNPSLKSRVTISKDTSKNQFSLKLSSVTAADTAVYFCARKDPYSSGWTPDYWGQGVLVTVSS
VL: QSVLTQPSSASASLGASVTLTCTLSSGYSNYAVDWHQQRPGKGPQFVMRVGTGGIVGSKGDGIPDRFSGSGSGLNRYLTIKNIQEEDESDYHCGADHGTGSSFVWVFGGGTRLTVL
[2]
  stoichiometry N (Fab per Env trimer): 2
